The values that follow come from patent publication US20120121579A1, “TREATMENT OF ONCOSTATIN M RECEPTOR BETA MEDIATED HEART FAILURE” (MAX-PLANCK-GESELLSCHAFT ZUR FORDERUNG DER WISSENSCHAFTEN …, priority 2009, published 2012).

“Also recorded” adds a separate entry of the source.

Data set [1] has as its system cardiomyocytes. Put plainly: Cytokine-induced FGP / dedifferentiation markers in cultured adult cardiomyocytes (Western blot). The settings on record: 20 ng/ml of cytokines, 10d of serum-free culture. In kind it is cell-based, rat. As for the experimental part: (§1) MCP-1 transgenic animals, intraperitoneally injection of oncostatin M and culture of adult cardiomyocytes. The generation of transgenic mice (from FVB/N mice) with cardiac restricted overexpression of monocyte chemotactic protein-1 has been previously described (Kolattukudy et al. 1998). 6 months old FVB mice were injected intraperitoneally twice daily with a volume of 0.2 ml of phosphate buffered saline containing 5% fetal calf serum without (CON) or with 60 ng oncostatin M (OSM) per gram of animal for fourteen days. Ventricular cardiac myocytes of 6-mo-old rats were isolated as previously described (Kubin et al. 1999). Myocytes were plated at a density of 1.5×10^4 cells/cm^2 on laminin-coated (10 μg/ml; Sigma) chamber slides or 6 well dishes (Nunc) in basic medium. Myocytes were allowed to recover for 2 days in 2% fetal calf serum (FCS). Thereafter, basic medium, FCS, 50 ng/ml insulin-like growth factor-1 or 20 ng/ml of cytokines were added as indicated. Media were replaced every other day. UO126 (Cell Signaling Technology) was added 1 h prior to stimulation. All experiments were performed in duplicate and constantly treated with 10 μM 1-(β-D-arabinofuranosyl)cytosine to prevent nonmyocyte growth. Determination of secreted ANP by Western Blot was performed after ultrafiltration (Millipore).
(§2) Preparation of Protein Extracts and Western Blot Analysis. Tissue Samples were Sonicated in Lysis buffer (0.1M Tris-HCl, 10% sodium dodecylsulfate (SDS), 10 mM ethylenediamine tetraacetic acid, 40 mM dithiothreitol (DTT); pH 8.0) containing inhibitors as previously described (Vogel et al. 2006). Cultures were washed twice with PBS and harvested by scraping in lysis buffer. After heating for 1 minute at 99° C. debris was removed by centrifugation for 2 min at 14000 g. Twenty micrograms of protein extracts were separated on 4%-12% SDS-PAGE gradient gels and processed as previously described (Vogel et al. 2006). Immunoreactive proteins were visualized on the VersaDoc (BioRad) and analyzed using the QuantityOne software (BioRad).

Data set [2] relates to cardiomyocytes. Briefly: Morphology of cultured adult cardiomyocytes: lengthening, sarcomeres, α-SM actin, cell growth (phase contrast, immunostaining). The format is cell-based, rat. The settings on record: for inhibition of OSM-induced cell lengthening: OSM-stimulated cardiomyocytes, serum-free. As for the experimental part:
as §1
(§3) Phase-contrast micrographs, immunocytochemistry and fluorescence microscopy. Phase-contrast micrographs were taken with a 20× lens. For immunocytochemistry and fluorescence microscopy samples were processed as previously described (Kubin et al. 1999).

Another data set deals with Erk1/2. Put plainly: OSM-induced Erk1/2 activation in cultured cardiomyocytes (Western blot). In kind it is cell-based, rat. The settings on record: after 10 minutes of OSM. As for the experimental part: as §1, with “Determination of secreted ANP by Western Blot was performed after ultrafiltration (Millipore).” left out
(§4) Preparation of Protein Extracts and Western Blot Analysis. […] Immunoreactive proteins were visualized on the VersaDoc (BioRad) and analyzed using the QuantityOne software (BioRad).

Data set [3] has as its system OSM treated cardiomyocytes. Briefly: Inhibition of OSM-induced FGP in cultured cardiomyocytes (Western blot of 95 kDa B-Raf, α-SM actin, destrin, secreted ANP). The settings on record: after 10 days of OSM. In kind it is cell-based, rat. As for the experimental part: as §1, with “Determination of secreted ANP by Western Blot was performed after ultrafiltration (Millipore).” left out
as §4

The test system of the next data set is gp130/Raf/Erk axis. Briefly: Intraperitoneal oncostatin M treatment of mice, Western blot and immunostaining of cardiac tissue. In kind it is in vivo, mouse. As for the experimental part: as §1, §2, §3
[4] abbreviates: 60 ng OSM per gram i.p. twice daily for fourteen days.

In the case of “MCP-1: monocyte chemotactic protein-1, recombinant mouse protein”, the “induction of FGP / dedifferentiation (re-expression of the 95 kDa B-Raf, α-SM actin and destrin)” value (“induction of FGP / dedifferentiation” below) in the data set with cardiomyocytes [1] is given as “neither TNF-α nor MCP-1 induced FGP”.
The same measure, in the same setting: for TNF-α the value was “neither TNF-α nor MCP-1 induced FGP”.
Consider `N#CC(=C(/N)Sc1ccccc1N)/C(C#N)=C(/N)Sc1ccccc1N` [UO126], for which the “inhibition of OSM-induced cell lengthening” value with cardiomyocytes [2] (8 days) is reported as “completely abolished OSM-induced lengthening; also recorded: abolishment of cell lengthening”. Also, the “inhibition of OSM-induced cell lengthening” value with cardiomyocytes [2] (8 days, listed as UO) was “abolishes this effect”. Moreover, the “inhibition of OSM-induced Erk1/2 activation (phosphorylation)” value in the data set with Erk1/2 is on record as “abolished the activation of Erk1/2; also recorded: inhibition of Erk1/2 activation”. In addition, in data set [3], the “inhibition of OSM-induced re-expression of α-SM actin, the 95 kDa B-Raf and destrin (FGP)” value is “complete inhibition of the reexpression; also recorded: loss of re-expression of α-SM actin, the 95 kDa B-Raf and destrin; also recorded: abolishment of cell lengthening, the reexpression of ANP, α-SM actin and the 95 kDa B-Raf isoform”; the “secretion of ANP by OSM-treated cardiomyocytes” value is “loss of secreted atrial natriuretic peptide; also recorded: reduced secretion of ANP”.

B1: 11-6: interleukin-6, recombinant mouse cytokine (protein, UniProt P08505 25-211, looked up)
Interleukin-6: FPTSQVRRGDFTEDTTPNRPVYTTSQVGGLITHVLWEIVEMRKELCNGNSDCMNNDDALAENNLKLPEIQRNDGCYQTGYNQEICLLKISSGLLEYHSYLEYMKNNLKDNKKDKARVLQRDTETLIHIFNQEVKDLHKIVLPTPISNALLTDKLESQKEWLRTKTIQFILKSLEEFLKVTLRSTRQT
Take B1: the “induction of FGP / dedifferentiation” value with cardiomyocytes [1] is “only a limited capacity to induce dedifferentiation”.

B2: cardiotrophin: recombinant mouse cytokine of the interleukin-6 class (protein, UniProt Q60753 1-203, looked up)
Cardiotrophin-1: MSQREGSLEDHQTDSSISFLPHLEAKIRQTHNLARLLTKYAEQLLEEYVQQQGEPFGLPGFSPPRLPLAGLSGPAPSHAGLPVSERLRQDAAALSVLPALLDAVRRRQAELNPRAPRLLRSLEDAARQVRALGAAVETVLAALGAAARGPGPEPVTVATLFTANSTAGIFSAKVLGFHVCGLYGEWVSRTEGDLGQLVPGGVA
Turning to B2, the “induction of FGP / dedifferentiation” value with cardiomyocytes [1] was “only a limited capacity to induce dedifferentiation”.

B3: OSM: mouse oncostatin M, recombinant cytokine obtained from Sigma (protein)
chain: ANRGCSNSSSQLLSQLQNQANLTGNTESLLEPYIRLQNLNTPDLRAACTQHSVAFPSEDTLRQLSKPHFLSTVYTTLDRVLYQLDALRQKFLKTPAFPKLDSARHNILGIRNNVFCMARLLNHSLEIPEPTQTDSGASRSTTTPDVFNTKIGSCGFLWGYHRFMGSVGRVFREWDDGSTRSRR
Turning to B3, the “induction of FGP / dedifferentiation” value with cardiomyocytes [1] is reported as “induces more potently FGP than LIF”. The “re-expression of α-SM actin (immunostaining)” value in the data set with cardiomyocytes [2] (2% serum, 12 days) is recorded as “massive re-expression of α-SM actin throughout the myocyte”. In the data set with cardiomyocytes [2] (2% serum, 12 days, versus 2% serum treated controls), the loss of sarcomeres entry is “massive loss of sarcomeres”. The “remodelling of cardiomyocytes (cell lengthening)” value with cardiomyocytes [2] (absence of serum, 8 days) was “remodelling of cardiomyocytes primarily visible in cell lengthening”. In addition, in the data set on gp130/Raf/Erk axis (setting [4]), the “P-Erk1/2 in cardiac tissue” value is “Moderate increases”; the “amounts of B-Raf isoforms in cardiac tissue” value is given as “increased amounts of all B-Raf isoforms”; the “level of LIF in cardiac tissue” value is recorded as “did not change; also recorded: No changes”; the “level of α-SM actin, destrin and ANP in myocardial tissue” value is given as “increased level”. The “phosphorylation level of the serine residue 782 of gp130” value in the data set with gp130/Raf/Erk axis (setting [4]) is on record as “significant increases”. For the same molecule, the “amount of OSMRβ in cardiac tissue” value in the data set on gp130/Raf/Erk axis (60 ng OSM per gram i.p. twice daily for fourteen days, 6 months old mice) was “significant increases”. Further, the “heart failure phenotype after injection into mice” value in the data set with gp130/Raf/Erk axis (injection of OSM into mice) is listed as “resulted into the heart failure phenotype of DCM”.
